Assay results as given in patent publication US20060024300A1 (published 2006).

Key:
CD20 [1] = biological target: T1, CD20 (human, UniProt P11836 1-297); assay: cell-based ELISA, WIL2-S cells
T1 construct: whole, on cells; not clear that this entry is the whole human CD20, so it is not used; also called human CD20; CD20 antigen
T1 sequence (looked up): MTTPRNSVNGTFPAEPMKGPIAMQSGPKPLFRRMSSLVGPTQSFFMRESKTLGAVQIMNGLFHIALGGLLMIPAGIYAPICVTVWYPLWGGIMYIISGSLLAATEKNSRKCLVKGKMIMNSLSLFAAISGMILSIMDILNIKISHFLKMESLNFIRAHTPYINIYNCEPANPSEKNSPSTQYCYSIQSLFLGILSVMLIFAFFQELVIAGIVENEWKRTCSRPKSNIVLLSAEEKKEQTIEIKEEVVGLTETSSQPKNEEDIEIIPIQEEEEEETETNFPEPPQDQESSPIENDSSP
Method: To measure relative binding affinities to the CD20 antigen, a cell-based ELISA assay was developed. […] The cells were washed with PBS containing 1% FBS (assay buffer) and seeded at 250-300,000 cellwell in 96-well round bottom plates (Nunc, Roskilde, Denmark). […] The plates were buried in ice and incubated for 45 min. To remove the unbound antibody, 0.1 mL assay buffer were added to the wells. Plates were centrifuged and supernatants were removed. Cells were washed two more times with 0.2 mL assay buffer. Antibody bound to the plates was detected by adding peroxidase conjugated goat anti-human Fc antibody (Jackson ImmunoResearch, West Grove, Pa.) to the plates. After a 45 min incubation, cells were washed as described before. TMB substrate (3,3′,5,5′-tetramethyl benzidine; Kirkegaard & Perry Laboratories, Gaithersburg, Md.) was added to the plates. The reaction was stopped by adding 1 M phosphoric acid. Titration curves were fit with a four-parameter nonlinear regression curve-fitting program (KaleidaGraph, Synergy software, Reading, Pa.). The absorbance at the midpoint of the titration curve (mid-OD) and its corresponding concentration of the standard were determined. Then the concentration of each variant at this mid-OD was determined, and the concentration of the standard was divided by that of each variant.

CD20 [2] = biological target: T1, CD20; assay: Scatchard analysis, cold antibody against 125I-2H7.v16 on WIL2-S cells
Method: All dilutions were performed in binding assay buffer (DMEM media containing 1% bovine serum albumin, 25 mM HEPES pH 7.2, and 0.01% sodium azide). […] WIL2-S cells (60,000 cells in 0.025 mL) were then added. The plate was sealed and incubated at room temperature for 24 h, then centrifuged for 15 min at 3,500 RPM. The supernatant was then aspirated and the cell pellet was washed and centrifuged. The supernatant was again aspirated, and the pellets were dissolved in 1N NaOH and transferred to tubes for gamma counting.

B1: 2H7 version 166 (antibody, human IgG1, kappa, V domains shown)
VH: EVQLVESGGGLVQPGGSLRLSCAASGYTFTSYNMHWVRQAPGKGLEWVGAIYPGNGDTSYNQKFKGRFTISVDKSKNTLYLQMNSLRAEDTAVYYCARVVYYGGDWYFDVWGQGTLVTVSS
VL: DIQMTQSPSSLSASVGDRVTITCRASSSVSYMHWYQQKPGKAPKPLIYAPSNLASGVPSRFSGSGSGTDFTLTISSLQPEDFATYYCQQWSFNPPTFGQGTKVEIKR
notes: IgG1; 2H7.v16 background; Y100b is deleted (empty new residue)
Relative binding (CD20 [1]): 0.99 ratio (2H7.v16 conc./variant conc.)

B2: 2H7.v73 (antibody, IgG1)
heavy: not shown
light: DIQMTQSPSSLSASVGDRVTITCRASSSVSYLHWYQQKPGKAPKPLIYAPSNLASGVPSRFSGSGSGTDFTLTISSLQPEDFATYYCQQWSFNPPTFGQGTKVEIKRTVAAPSVFIFPPSDEQLKSGTASVVCLLNNFYPREAKVQWKVDNALQSGNSQESVTEQDSKDSTYSLSSTLTLSKADYEKHKVYACEVTHQGLSSPVTKSFNRGEC
notes: IgG1; 2H7.v16 background
Kd (CD20 [2]): 1.22 nM

B3: 2H7.v75 (antibody, IgG1)
heavy: EVQLVESGGGLVQPGGSLRLSCAASGYTFTSYNMHWVRQAPGKGLEWVGAIYPGNGDTSYNQKFKGRFTISVDKSKNTLYLQMNSLRAEDTAVYYCARVVYYSASYWYFDVWGQGTLVTVSSASTKGPSVFPLAPSSKSTSGGTAALGCLVKDYFPEPVTVSWNSGALTSGVHTFPAVLQSSGLYSLSSVVTVPSSSLGTQTYICNVNHKPSNTKVDKKVEPKSCDKTHTCPPCPAPELLGGPSVFLFPPKPKDTLMISRTPEVTCVVVDVSHEDPEVKFNWYVDGVEVHNAKTKPREEQYNATYRVVSVLTVLHQDWLNGKEYKCKVSNKALPAPIAATISKAKGQPREPQVYTLPPSREEMTKNQVSLTCLVKGFYPSDIAVEWESNGQPENNYKTTPPVLDSDGSFFLYSKLTVDKSRWQQGNVFSCSVMHEALHNHYTQKSLSLSPGK
light: B2 light
notes: IgG1; 2H7.v16 background
Kd (CD20 [2]): 1.09 nM
